Measured values taken from patent publication US9701733B2, “Maspin-based treatment of cancer” (Northwestern University, priority 2011, dated 2017).
Where a chain is given by its changes, count along the chain named. Numbers in names are those of the source. Entries after “also recorded” stand apart in the source; their conditions may differ.

B1: single mutant (E201K): GST-maspin point mutant E201K (protein, UniProt P36952 1-375, looked up, variant E201K)
Serpin B5: MDALQLANSAFAVDLFKQLCEKEPLGNVLFSPICLSTSLSLAQVGAKGDTANEIGQVLHFENVKDVPFGFQTVTSDVNKLSSFYSLKLIKRLYVDKSLNLSTEFISSTKRPYAKELETVDFKDKLEETKGQINNSIKDLTDGHFENILADNSVNDQTKILVVNAAYFVGKWMKKFSESETKECPFRVNKTDTKPVQMMNMKATFCMGNIDSINCKIIELPFQNKHLSMFILLPKDVEDESTGLEKIEKQLNSESLSQWTNPSTMANAKVKLSIPKFKVEKMIDPKACLENLGLKHIFSEDTSDFSGMSETKGVALSNVIHKVCLEITEDGGDSIEVPGARILQHKDELNADHPFIYIIRHNKTRNIIFFGKFCSP
modifications: GST tag
B2: GST-maspin: Glutathione S-transferase (GST)-tagged recombinant wild-type maspin; 125I-labeled for binding assay (protein, UniProt P36952 1-375, looked up)
Serpin B5: B1 Serpin B5 with K201E
modifications: GST tag; 125I label
B3: triple mutant (E201K, K268E, K270E): GST-maspin mutant E201K, K268E, K270E (protein, UniProt P36952 1-375, looked up, variant E201K K268E K270E)
Serpin B5: B1 Serpin B5 with K268E, K270E
modifications: GST fusion
B4: double mutant (K268E, K270E): GST-maspin mutant K268E, K270E (protein, UniProt P36952 1-375, looked up, variant K268E K270E)
Serpin B5: B1 Serpin B5 with K201E, K268E, K270E
modifications: GST fusion

Columns and labels:
MCF10A cells = assay: Adhesion assay of MCF10A cells on self-deposited (endogenous) matrix; format: cell-based, human; details: for effect of maspin-derived competitive peptide on MCF10A cell adhesion: cells pre-incubated with peptide, adhesion measured after 30 min, self-deposited matrix; for effect of GST-maspin mutant on MCF10A cell adhesion: compared to wild-type GST-maspin; for effect of GST-maspin mutant on MCF10A cell adhesion / reduction of MCF10A cell adhesion compared to WT GST-maspin: endogenous matrix; for reduction of MCF10A cell adhesion compared to WT GST-maspin: recombinant protein
Experimental: Assays utilizing endogenous ECM proteins generated by MCF10A cells were performed as previously described (Langhofer et al. (1993) J Cell Sci 105 (Pt 3), 753-764; herein incorporated by reference in its entirety). MCF10A cells were plated in 96-well dishes and allowed to reach confluence. Cells were washed with PBS and treated for 5 min with fresh sterile 20 mM NH4OH, followed by extensive water washes. Wells were blocked with heat-denatured BSA (10 mg/ml) for 1 hr at room temperature. Subconfluent cultures were trypsinized, washed with 37° C. serum-free DMEM/F12 medium, and incubated with either antibodies or recombinant proteins (500 nM) for 30 min at 37° C. (when assaying endogenous maspin enzyme-free cell dissociation solution was used instead of trypsin). In all assays, 2.0×10^4 cells were plated in triplicates and allowed to adhere for 30 min at 37° C. The GST protein was used as a control. Wells were washed with 37° C. serum-free DMEM/F12 and adhered cells were fixed with 5% gluteraldehyde and stained with crystal violet dye. Cell adhesion was determined by the reading at 590 nm subtracted by the blank value (determined by BSA-coated wells, 5% of maximal cell adhesion). Cell adhesion was plotted as percentage of the corresponding control value. Cell surface stripping of uPA from uPAR was conducted as previously described (Stoppelli et al. (1986) Cell 45, 675-684; herein incorporated by reference in its entirety). Subconfluent cultures were washed twice with DMEM/F12 supplemented with 20 mM HEPES and 1 mg/ml BSA. Then, cells were incubated with 50 mM glycine-HCl (pH 3.0) with 100 mM NaCl at 25° C. for 2 min and the reaction was halted by neutralizing with 500 mM HEPES (pH 7.4). In the function blocking studies, cells were first incubated with the function blocking antiuPAR or control rabbit IgG for 10 min, uPA and recombinant GST-maspin was added for another 20 min.

HUVEC endothelial cells = assay: HUVEC tube formation assay on MatriGel; format: cell-based; details: for effect on HUVEC tube formation: 1.0 uM; for potency on tube angiogenesis: compared to the G-Helix peptide or GST-maspin (FIG. 7)
Experimental: HUVECs were plated on MatriGel for tube formation assay. Various peptides were tested for the potency on tube angiogenesis.
HUVEC endothelial cells were used to test the effect of synthetic maspin peptides on HUVEC tube formation assay in cell culture systems. Random peptide was used as a negative control and maspin G-helix peptide as a positive control. G-Helix was previously found to be effective in inhibiting endothelial cell migration, thereby mimicking maspin effect against angiogenesis. […] At 1.0 uM, G-helix was not effective.

WT MEF cell surface = assay: 125I-GST-maspin binding to wild type MEF cell surface; set-up: species or system mouse; details: WT MEFs; 4° C., 90 min; <500 nM
Experimental: (§1) Bacterial recombinant GST-maspin was labeled with ^125I as described previously (Conlon, M. (2002) Preparation of ^125I-Labeled Peptides and Proteins with High Specific Activity using IODO-GEN, 2nd Edition Ed. The Protein Protocols Handbook (Walker, J. M., Ed.), Humana Press Inc, Totowa, N.J.; herein incorporated by reference in its entirety). Wild type (WT) and uPAR−/− mouse embryo fibroblasts (MEFs) (5.0×10^4 cells) were cultured in DMEM with 10% FBS on 96-well plate overnight. Cells were chilled on ice for 30 min, washed three times with ice-cold DMEM, and then blocked on ice for 60 min using blocking buffer (DMEM containing 5% heat inactivated BSA). MEFs were incubated with increasing concentrations of ^125I-GST-maspin in blocking buffer at 4° C. for 90 min. After incubation, unbound ^125I-GST-maspin protein was removed by washing three times with blocking buffer. Specific ^125I-GST-maspin binding was determined by subtracting the detected radioactivity by the nonspecific binding (determined in the presence of a 50-fold excess of non-labeled GST-maspin). In the studies evaluating the uPA/uPAR interactions, ^125I-GST-maspin was treated with ABS4A and S-20 (Santa Cruz) antibodies, which block the RCL and N-terminal domains, prior to adding to WT MEF cells. In one set, WT MEF cells were treated with an anti-mouse uPAR antibody (R&D), which blocks uPA binding to uPAR. […]

uPAR-/- MEFs = assay: 125I-GST-maspin binding to uPAR-/- MEF cell surface; set-up: species or system mouse; details: 4° C., 90 min, <500 nM
Experimental: as §1

Molecule | effect of maspin-derived competitive peptide on MCF10A cell adhesion (MCF10A cells) | effect of GST-maspin mutant on MCF10A cell adhesion (MCF10A cells) | reduction of MCF10A cell adhesion compared to WT GST-maspin (MCF10A cells) | also measured
NPSTMANAKVKLSIPK (listed as Homo sapiens) [peptide 260-275] | inhibited cell adhesion |  |  | effect of maspin-derived competitive peptide on MCF10A cell adhesion (MCF10A cells; listed as 260-275 peptide): reduced
peptide 181-202: competitive peptide corresponding to maspin amino acid residues 181-202 (KECPFRVNKTDTKPVQMMNMEA; UniProt P36952 181-202, looked up, fragment) | inhibited cell adhesion; also recorded: competed with GST-maspin |  |  | 
TANAEVKLSIPK (listed as Homo sapiens) [peptide Y, synthetic maspin mimetic peptide] |  |  |  | effect on HUVEC tube formation (HUVEC endothelial cells): highly effective; potency on tube angiogenesis (HUVEC endothelial cells): highly potent
TDTKPVQMMNMEATFCMGNIDSI (listed as Homo sapiens) [190-211] | inhibited cell adhesion; also recorded: competed with GST-maspin |  |  | 
peptide 169-189: peptide corresponding to maspin residues 169-189 (s3C) (GKWMKKFSESETKECPFRVNK; UniProt P36952 169-189, looked up, fragment) | not s3C (peptide 169-189) was important |  |  | 
STANAKVKLSIP (listed as Homo sapiens) [peptide X, synthetic maspin mimetic peptide] |  |  |  | effect on HUVEC tube formation (HUVEC endothelial cells): highly effective; potency on tube angiogenesis (HUVEC endothelial cells): highly potent
B1 |  | inhibited cell adhesion; also recorded: significantly reduced | 16% | 
B2 |  |  |  | specific 125I-GST-maspin binding to cell surface (WT MEF cell surface): displayed specific 125I-GST-maspin binding; maspin-induced MCF10A cell adhesion after stripping endogenous uPA (MCF10A cells; endogenous uPA acid-stripped before GST-maspin): substantially blocks; maspin-mediated adhesion of uPA-stripped MCF10A cells after addition of exogenous uPA (MCF10A cells; uPA acid-stripped, exogenous uPA 800 nM): 154.06 % of GST control; specific 125I-GST-maspin binding to cell surface (uPAR-/- MEFs): absent of any specific 125I-GST-maspin binding
B3 |  | inhibited cell adhesion | approximately 28% | 
B4 |  | inhibited cell adhesion | 17% | effect of GST-maspin mutant on MCF10A cell adhesion (MCF10A cells; listed as double mutant GST maspin (K268E, K270E)): reduced
